Experimental findings from paper PMC3378326 are described below.

Assay [1] has as its target FGF8b. The experiment in a line: SPR. On the technique in general: Surface plasmon resonance follows binding to a sensor surface in real time, without labels.
Assay [2] has as its target FGF1 (UniProt P05230). Description: SPR.

FGF1, sequence (P05230 whole entry): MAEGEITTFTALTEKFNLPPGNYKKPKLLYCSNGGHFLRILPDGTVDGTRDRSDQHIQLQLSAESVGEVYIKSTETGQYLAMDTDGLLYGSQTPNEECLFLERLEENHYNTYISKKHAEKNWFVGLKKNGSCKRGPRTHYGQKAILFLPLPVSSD

The term Kd denotes the concentration at which binding is half-saturated. Take “D1-AB-D2-D3 (FGFR3c), full-length FGFR3c ectodomain (from UniProt P22607 23-375) (domain or fragment)”: the Kd in assay [1] was determined as 888 nM. This lies in the sub-micromolar range.
In the case of “D1-D2-D3^ΔAB/linker (FGFR3c), naturally occurring isoform of FGFR3c lacking the AB/linker (domain or fragment)”, the Kd was determined as 310 nM in assay [2] and 367 nM in assay [1].
